{
  "source": "paper PMC6992781",
  "molecular_target": "RVC20 (mature), recombinant human IgG1 (human)",
  "sequence (heavy, as listed by the source, chain 1 of 2)": "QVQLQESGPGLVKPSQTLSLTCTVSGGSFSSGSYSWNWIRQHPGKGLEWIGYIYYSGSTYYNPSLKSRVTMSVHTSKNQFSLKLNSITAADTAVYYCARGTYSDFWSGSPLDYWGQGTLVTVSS",
  "sequence (light, as listed by the source, chain 2 of 2)": "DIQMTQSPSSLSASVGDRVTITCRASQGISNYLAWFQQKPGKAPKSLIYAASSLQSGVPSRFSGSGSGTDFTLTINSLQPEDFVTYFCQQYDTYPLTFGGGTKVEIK",
  "assay": "BLI",
  "note": "Several values for one entry are separate records, joined by “and”; a condition that tells them apart may be missing. Equal values may be shown once.",
  "data": [
    {"substance": "RABV G domain III (E31-V56 and N182-D262 joined by three glycines), strain 9147FRA (domain or fragment)", "values": [
      {"measurement": "Kd", "value": "7.95 nM and 11.3 nM and 12.2 nM"}
    ]}
  ]
}
